Entries after “also recorded” stand apart in the source; their conditions may differ.
What was measured:
Format in all cases: cell-based
[1] = test system: human CD3 T cells; assay: Transfection of human CD3 T cells (CD8 and CD4 subsets) with Fab/Nb-targeted LNPs; conditions: targeted Lipid 8 LNP (Lipid 5 in Example 43), GFP mRNA approximately 2.5 μg/mL, approximately 24 hr
Description: LNPs were prepared using the mixing process described in Example 6, the buffer exchange process described below in Example 21. Using methods similar to Example 12, hSP34 and TRX2 Fab-lipid conjugates and a non-T cell specific anti-HER2 lipid-conjugate (Nellis D F, Ekstrom D L, Kirpotin D B, Zhu J, Andersson R, Broadt T L, Ouellette T F, Perkins S C, Roach J M, Drummond D C, Hong K, Marks J D, Park J W and Giardina S L (2005) Preclinical manufacture of an anti-HER2 scFv-PEG-DSPE, liposome-inserting conjugate. 1. Gram-scale production and purification. Biotechnol Prog 21:205-220) were post-inserted at various densities (SP34 0.25-17 g/mol; TRX2 0.25-9 g/mol; SP34+TRX2 0.25-9 g/mol each conjugate; anti-HER2 17 g/mol) into LNPs containing Lipid 8 and anti-CD20 targeting CART mRNA. Transfections were performed with human CD3 T cells at approximately 2.5 μg/mL mRNA for approximately 24 hr. For FACS analysis T cells were stained with M1 antibody (Sigma, F3040) that bind a N-terminus FLAG-tag variant sequence on the TTR-023 CAR (sequence provided below) in addition to staining for CD69 (Biolegend, 310930) and CD4 (Biolegend, 344648) to differentiate CD8 from CD4 cells.
LNPs were prepared using the mixing process described in Example 6, the buffer exchange process described in Example 21. Using methods similar to Example 12, hSP34, TRX2, and Ibalizumab Fab-lipid conjugates and a non-T cell specific anti-HER2 lipid-conjugate were post-inserted at various densities (specified in FIGS. 20A and 20B into LNPs containing Lipid 8 and Cy5/GFP mRNA. Transfections were performed with human CD3 T cells at approximately 2.5 μg/mL mRNA for approximately 24 hr and stained for CD69 (Biolegend, 310930) and CD4 (Biolegend, 344648) to differentiate CD8 from CD4 cells by FACS analysis.
LNPs were prepared using the mixing process described in Example 6, the buffer exchange process described in Example 21. Conjugates were generated using a method similar to that of Example 4 except 0.025, 0.1, 0.5 mM TCEP was used for hSP34 DS, 0.025, 0.2, 2 mM TCEP was used for hSP34-hlam NoDS (interchain disulfide knockout) for reduction prior to conjugation and the conjugation reactions were performed at 37 C for 2 hr. SDS-PAGE (FIGS. 65A, 65B) was performed using the manufacturers recommended conditions with 1 ug of protein (Thermo, 4-12% Bis-Tris MiniGel). RP-HPLC (FIGS. 65C, 65D) was performed using an Agilent 300 SB-C8 at 0.5 mL/min with a column temperature of 60° C., Mobile Phase A: Water with 0.1% TFA, Mobile Phase B: Acetonitrile with 0.1% TFA, Gradient % B: 0 min 5%, 1 min 5%, 6.5 min 95%, 8 min 95% injecting 10 ul with a target of 1-25 ug of protein. Using methods similar to Example 12, ant-CD3 hSP34 (with and without natural interchain disulfide, DS (with interchain disulfide) vs. NoDS (without interchain disulfide), see sequences below) PEG-lipid conjugated Fabs were post-inserted at various Fab densities (6, 12, 17 g Fab/mol total lipid) into LNPs containing Lipid 8 and Cy5/GFP mRNA. Transfections were performed with human CD3 T cells at approximately 2.5 μg/mL mRNA for approximately 24 hr. Levels of transfection of CD3 T cells was measured by flow cytometry.
LNPs were prepared using the mixing process described in Example 6, the buffer exchange process described in Example 21. Conjugates were generated using a method similar to that of Example 4 except 0.1 mM TCEP was used for reduction prior to conjugation and the conjugation reaction was performed at 37 C for 2 hr. […]

[2] = test system: IFNγ; assay: Human IFNγ ELISA of T cell culture supernatants after LNP transfection; conditions: T cells approximately 24 hr after targeted LNPs at approximately 2.5 μg/mL mRNA
Description: (§1) LNPs were prepared using the mixing process described in Example 6, the buffer exchange process described in Example 21. hSP34 and TRX2 Fab-lipid conjugates generated from methods described in Example 4 and a non-T cell specific anti-HER2 lipid-conjugate (Nellis D F, Ekstrom D L, Kirpotin D B, Zhu J, Andersson R, Broadt T L, Ouellette T F, Perkins S C, Roach J M, Drummond D C, Hong K, Marks J D, Park J W and Giardina S L (2005) Preclinical manufacture of an anti-HER2 scFv-PEG-DSPE, liposome-inserting conjugate. 1. Gram-scale production and purification. Biotechnol Prog 21:205-220) were post-inserted at various densities (SP34 0.6-17 g/mol; TRX2 3-9 g/mol; anti-HER2 17 g/mol) into LNPs containing Lipid 8, Cy5 labeled GFP mRNA and GFP mRNA (1:9 Cy5:GFP mass ratio) by adding conjugate and LNPs together and heating the solution without mixing in a thermal cycler at 60 C for 60 min and cooled to 4° C. for 3-5 min. […] After transfection, LNP binding efficiency (Cy5) and transfection efficiency (GFP) was evaluated by flow cytometry. Supernatants were measured for human IFNγ concentration using a commercially available ELISA kit under manufacturers recommended conditions (R&D Systems Duoset).
IFN-γ was assayed using an R&D Duoset […] ELISA kit, PN DY285B. […] Optical density at 450 nm was read on a Spectramax M5 plate reader. […]

[3] = test system: human CD8 T cells; assay: Transfection of human CD8 T cells with Fab-targeted Cy5/GFP mRNA LNPs; conditions: Lipid 8 LNP, Cy5/GFP mRNA approximately 2.5 μg/mL, approximately 24 hr, Fab conjugate post-inserted
Description: as §1, with “Duoset). […]” for “Duoset).”

Molecule	% GFP transfection and GFP expression (MFI) of CD8 and CD4 T cells, in words [1]	IFNγ secretion into supernatant, in words [2]	transfection (% GFP+, GFP MFI) and binding (% Cy5+, Cy5 MFI), in words [3]
Teplizumab: anti-CD3 Teplizumab bDS Fab, SEQ ID NO: 54 and 55 (antibody) heavy: QVQLVQSGGGVVQPGRSLRLSCKASGYTFTRYTMHWVRQAPGKGLEWIGYINPSRGYTNYNQKVKDRFTISRDNSKNTAFLQMDSLRPEDTGVYFCARYYDDHYCLDYWGQGTPVTVSSASTKGPSVFPLAPSSKSTSGGTAALGCLVKDYFPEPVTVSWNSGALTSGVHTCPAVLQSSGLYSLSSVVTVPSSSLGTQTYICNVNHKPSNTKVDKKVEPKSSDKTHTCHHHHHH light: DIQMTQSPSSLSASVGDRVTITCSASSSVSYMNWYQQTPGKAPKRWIYDTSKLASGVPSRFSGSGSGTDYTFTISSLQPEDIATYYCQQWSSNPFTFGQGTKLQITRTVAAPSVFIFPPSDEQLKSGTASVVCLLNNFYPREAKVQWKVDNALQSGNSQESVTEQDSKDSTYSLCSTLTLSKADYEKHKVYACEVTHQGLSSPVTKSFNRGES	lower levels of GFP expression	higher levels of IFNγ secretion than SP34	
OKT8: anti-CD8 Fab, SEQ ID NO: 8 and 9 (antibody) heavy: QVQLVQSGAEDKKPGASVKVSCKASGFNIKDTYIHWVRQAPGQGLEWMGRIDPANDNTLYASKFQGRVTITADTSSNTAYMELSSLRSEDTAVYYCGRGYGYYVFDHWGQGTTVTVSSASTKGPSVFPLAPSSKSTSGGTAALGCLVKDYFPEPVTVSWNSGALTSGVHTFPAVLQSSGLYSLSSVVTVPSSSLGTQTYICNVNHKPSNTKVDKKVEPKSSDKTHTC light: DIVMTQSPSSLSASVGDRVTITCRTSRSISQYLAWYQEKPGKAPKLLIYSGSTLQSGVPSRFSGSGSGTDFTLTISSLQPEDFATYYCQQHNENPLTFGQGTKVEIKRTVAAPSVFIFPPSDEQLKSGTASVVCLLNNFYPREAKVQWKVDNALQSGNSQESVTEQDSKDSTYSLSSTLTLSKADYEKHKVYACEVTHQGLSSPVTKSFNRGES			high levels of particle binding
BDSn: anti-CD8 Nanobody, SEQ ID NO: 77 (protein, conjugate) VHH: EVQLVESGGGLVQAGGSLRLSCAASGSTFSDYGVGWFRQAPGKGREFVADIDWNGEHTSYADSVKGRFATSRDNAKNTAYLQMNSLKPEDTAVYYCAADALPYTVRKYNYWGQGTQVTVSSGGCGGHHHHHH	higher % transfection (FIG. 73A) and GFP expression levels (FIG. 73B) than anti-CD8 TRX2; also recorded: transfection and translation was only observed in the CD8 T cell population	did not mediate substantial IFNγ secretion levels over non-targeted mutOKT8 Fab	

From patent publication US20220218614A1, “IONIZABLE CATIONIC LIPIDS AND LIPID NANOPARTICLES, AND METHODS OF SYNTHESIS AND USE THEREOF” (Tidal Therapeutics, Inc., priority 2020, published 2022)
